PMC2680336

Target: Ect2 (UniProt Q9H8V3)
Test: anti-myc IP, anti-FLAG blot
Settings: reference: wild-type FLAG-HsCYK-4; sites S157

In the case of “HsCYK-4 (MgcRacGAP) (from UniProt Q9H0H5) S157A”, the “binding against the reference” value is reported as “weaker”.
